The text below walks through data of patent US20220403009A1.

Test [1] has as its target SARS-CoV-1 spike protein on HIV-based pseudovirus (SARS-CoV) (UniProt P59594). The test can be described thus: cell-based or functional assay.
The target of test [2] is SARS-CoV-2 spike protein on pseudovirus (SARS-CoV-2) (UniProt P0DTC2). The test can be described thus: cell-based or functional assay.

In test [1], CR3014 IgM + J (antibody) showed a Fold Over IgG1 (CoV-1) By Molar greater than 80 fold; a Fold Over IgG1 (CoV-1) By Weight greater than 13 fold; an IC50, SARS-CoV-1 pseudovirus neutralization of less than 0.0051 µg/mL. Moreover, in test [2], the IC50, SARS-CoV-2 pseudovirus neutralization is greater than 100000 µg/mL.
In test [1], CR3014 IgG1 (antibody) had a Fold Over IgG1 (CoV-1) By Molar of 1 fold; a Fold Over IgG1 (CoV-1) By Weight of 1 fold; an IC50, SARS-CoV-1 pseudovirus neutralization of 0.068 µg/mL. This substance also displayed an IC50, SARS-CoV-2 pseudovirus neutralization in test [2] greater than 100000 µg/mL.
